# Test results from US20080044360A1 (COLLAGEN MEDICAL, published 2008).
# Bridge positions count the residues as written; N and C are the ends. Square brackets hold non-standard residues; d marks the D form. Primed or numbered codes have the meaning given here. Side chains are listed from the residue outwards. Ends that are not written are not given here. * marks the point of attachment. Bpa = N[C@@H](Cc1ccc(C(=O)c2ccccc2)cc1)C(=O)O; Gd^D = GdDOTAGA (gadolinium DOTAGA chelate); Tyr(3-Cl) = N[C@@H](Cc1ccc(O)c(Cl)c1)C(=O)O; Bip = N[C@@H](Cc1ccc(-c2ccccc2)cc1)C(=O)O; Gd^T(3) = GdDTPA attached via thiourea; 1Nal = N[C@@H](Cc1cccc2ccccc12)C(=O)O; 2Nal = N[C@@H](Cc1ccc2ccccc2c1)C(=O)O; Bta = N[C@@H](Cc1csc2ccccc12)C(=O)O; Hyp = O=C(O)[C@@H]1C[C@@H](O)CN1; hPhe = N[C@@H](CCc1ccccc1)C(=O)O; 2Pal = N[C@@H](Cc1ccccn1)C(=O)O; 4Pal = N[C@@H](Cc1ccncc1)C(=O)O; Cha = N[C@@H](CC1CCCCC1)C(=O)O; K(Gd^T)Gd^T = not defined here; Pen = CC(C)(S)[C@H](N)C(=O)O; Gd^G = not defined here; Gd^T = not defined here; Gd^T″ = GdDTPA-thiourea; Cbz = O=C(OCc1ccccc1)*; Dap = NC[C@H](N)C(=O)O; AEEA = NCCOCCOCC(=O)O; Aib = CC(C)(N)C(=O)O
# Tests used:
# [1] = biological target: T1, human collagen type I, acid soluble, extracted from placenta (Sigma C7774) (human, UniProt P02452 162-1218; P08123 80-1119); experiment: dried collagen assay
# T1 construct: tissue extract, gelled and dried in wells; also called dried human collagen; h-Collagen
# [2] = biological target: T2, rat collagen, acid soluble, type I, rat tail (Upstate 08-115) (rat, UniProt P02454 152-1207; P02466 86-1125); experiment: dried collagen assay
# T2 construct: tissue extract, gelled and dried in wells; also called dried rat collagen
# T2 sequence (P02454 152-1207, chain 1 of 2): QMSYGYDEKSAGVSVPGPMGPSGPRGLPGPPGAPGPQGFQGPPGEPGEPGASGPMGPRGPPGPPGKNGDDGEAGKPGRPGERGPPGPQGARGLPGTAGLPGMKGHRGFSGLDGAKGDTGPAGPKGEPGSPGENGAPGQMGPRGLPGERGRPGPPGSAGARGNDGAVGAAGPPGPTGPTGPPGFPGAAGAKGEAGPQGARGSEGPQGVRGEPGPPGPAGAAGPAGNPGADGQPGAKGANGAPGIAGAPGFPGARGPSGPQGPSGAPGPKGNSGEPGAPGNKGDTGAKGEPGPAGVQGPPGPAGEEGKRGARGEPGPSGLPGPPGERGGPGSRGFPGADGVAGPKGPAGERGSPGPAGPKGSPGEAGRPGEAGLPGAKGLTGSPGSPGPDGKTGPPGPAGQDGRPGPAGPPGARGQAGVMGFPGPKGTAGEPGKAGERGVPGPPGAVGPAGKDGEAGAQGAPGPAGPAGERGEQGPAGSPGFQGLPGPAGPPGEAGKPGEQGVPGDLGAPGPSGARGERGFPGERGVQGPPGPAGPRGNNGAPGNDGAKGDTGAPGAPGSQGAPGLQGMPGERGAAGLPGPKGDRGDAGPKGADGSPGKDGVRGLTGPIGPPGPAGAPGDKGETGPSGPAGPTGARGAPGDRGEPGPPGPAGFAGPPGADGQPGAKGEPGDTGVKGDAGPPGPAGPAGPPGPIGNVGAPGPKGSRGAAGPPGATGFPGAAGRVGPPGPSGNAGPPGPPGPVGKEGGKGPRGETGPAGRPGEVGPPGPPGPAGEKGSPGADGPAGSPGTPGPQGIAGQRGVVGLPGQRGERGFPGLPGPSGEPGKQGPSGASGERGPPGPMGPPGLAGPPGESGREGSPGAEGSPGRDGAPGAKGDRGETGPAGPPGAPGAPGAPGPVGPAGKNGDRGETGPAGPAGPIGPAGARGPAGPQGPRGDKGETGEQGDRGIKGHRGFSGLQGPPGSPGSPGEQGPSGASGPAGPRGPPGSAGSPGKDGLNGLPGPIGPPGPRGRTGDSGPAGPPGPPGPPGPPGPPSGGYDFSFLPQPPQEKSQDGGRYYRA
# T2 sequence (P02466 86-1125, chain 2 of 2): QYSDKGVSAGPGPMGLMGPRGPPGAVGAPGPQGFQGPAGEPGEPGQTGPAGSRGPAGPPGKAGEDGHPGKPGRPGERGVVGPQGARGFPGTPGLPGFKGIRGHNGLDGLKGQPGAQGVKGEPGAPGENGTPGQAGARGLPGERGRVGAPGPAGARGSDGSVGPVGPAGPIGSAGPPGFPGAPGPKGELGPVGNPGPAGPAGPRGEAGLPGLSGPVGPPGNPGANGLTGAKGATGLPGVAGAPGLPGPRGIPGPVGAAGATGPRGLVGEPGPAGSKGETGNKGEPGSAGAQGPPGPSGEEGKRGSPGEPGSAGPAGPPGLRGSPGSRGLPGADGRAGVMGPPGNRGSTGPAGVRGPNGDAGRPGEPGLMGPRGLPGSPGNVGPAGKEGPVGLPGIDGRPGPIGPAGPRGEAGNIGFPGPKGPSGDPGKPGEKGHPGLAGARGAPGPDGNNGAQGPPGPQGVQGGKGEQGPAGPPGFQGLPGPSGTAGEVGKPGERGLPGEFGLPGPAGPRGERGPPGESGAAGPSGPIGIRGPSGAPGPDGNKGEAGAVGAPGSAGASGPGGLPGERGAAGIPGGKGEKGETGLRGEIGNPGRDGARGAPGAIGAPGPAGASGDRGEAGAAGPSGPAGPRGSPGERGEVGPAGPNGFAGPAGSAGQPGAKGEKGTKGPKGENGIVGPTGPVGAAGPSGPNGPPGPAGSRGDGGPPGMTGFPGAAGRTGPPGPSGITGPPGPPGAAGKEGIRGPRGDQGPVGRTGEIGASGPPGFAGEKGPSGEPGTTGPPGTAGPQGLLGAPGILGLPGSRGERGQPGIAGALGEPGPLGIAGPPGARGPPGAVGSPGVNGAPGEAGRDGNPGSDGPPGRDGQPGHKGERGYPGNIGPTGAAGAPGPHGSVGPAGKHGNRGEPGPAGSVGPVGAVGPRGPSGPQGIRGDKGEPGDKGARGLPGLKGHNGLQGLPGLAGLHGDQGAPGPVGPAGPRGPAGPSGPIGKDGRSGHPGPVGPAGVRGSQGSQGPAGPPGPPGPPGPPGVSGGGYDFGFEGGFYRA
# T1 sequence (P02452 162-1218 limits assumed, chain 1 of 2): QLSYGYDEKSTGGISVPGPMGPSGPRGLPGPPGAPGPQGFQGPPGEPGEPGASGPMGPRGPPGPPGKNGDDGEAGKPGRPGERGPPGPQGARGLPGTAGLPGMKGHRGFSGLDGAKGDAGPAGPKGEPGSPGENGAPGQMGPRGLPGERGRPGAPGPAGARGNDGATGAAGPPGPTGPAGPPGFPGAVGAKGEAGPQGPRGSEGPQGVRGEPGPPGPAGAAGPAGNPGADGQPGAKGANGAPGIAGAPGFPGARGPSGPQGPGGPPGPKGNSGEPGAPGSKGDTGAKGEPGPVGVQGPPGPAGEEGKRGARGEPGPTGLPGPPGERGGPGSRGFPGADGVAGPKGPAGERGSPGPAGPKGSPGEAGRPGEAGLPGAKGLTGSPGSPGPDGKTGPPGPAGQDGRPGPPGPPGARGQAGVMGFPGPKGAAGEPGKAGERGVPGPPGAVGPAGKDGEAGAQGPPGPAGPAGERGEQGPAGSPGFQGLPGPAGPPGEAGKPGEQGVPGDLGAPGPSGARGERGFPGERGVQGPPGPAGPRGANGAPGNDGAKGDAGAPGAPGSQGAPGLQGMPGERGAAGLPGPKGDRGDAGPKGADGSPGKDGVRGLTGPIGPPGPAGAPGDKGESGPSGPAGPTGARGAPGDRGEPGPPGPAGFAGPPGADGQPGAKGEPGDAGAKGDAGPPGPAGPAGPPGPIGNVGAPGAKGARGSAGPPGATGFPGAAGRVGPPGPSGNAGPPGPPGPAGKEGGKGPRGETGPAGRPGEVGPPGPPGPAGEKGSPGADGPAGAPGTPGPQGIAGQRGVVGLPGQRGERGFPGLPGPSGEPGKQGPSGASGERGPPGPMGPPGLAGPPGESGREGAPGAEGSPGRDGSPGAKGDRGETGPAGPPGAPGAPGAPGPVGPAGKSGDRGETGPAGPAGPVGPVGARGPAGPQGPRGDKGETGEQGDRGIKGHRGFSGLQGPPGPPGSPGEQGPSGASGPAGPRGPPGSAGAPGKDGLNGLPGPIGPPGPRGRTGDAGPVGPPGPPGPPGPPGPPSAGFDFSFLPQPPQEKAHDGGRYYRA
# T1 sequence (P08123 80-1119 limits assumed, chain 2 of 2): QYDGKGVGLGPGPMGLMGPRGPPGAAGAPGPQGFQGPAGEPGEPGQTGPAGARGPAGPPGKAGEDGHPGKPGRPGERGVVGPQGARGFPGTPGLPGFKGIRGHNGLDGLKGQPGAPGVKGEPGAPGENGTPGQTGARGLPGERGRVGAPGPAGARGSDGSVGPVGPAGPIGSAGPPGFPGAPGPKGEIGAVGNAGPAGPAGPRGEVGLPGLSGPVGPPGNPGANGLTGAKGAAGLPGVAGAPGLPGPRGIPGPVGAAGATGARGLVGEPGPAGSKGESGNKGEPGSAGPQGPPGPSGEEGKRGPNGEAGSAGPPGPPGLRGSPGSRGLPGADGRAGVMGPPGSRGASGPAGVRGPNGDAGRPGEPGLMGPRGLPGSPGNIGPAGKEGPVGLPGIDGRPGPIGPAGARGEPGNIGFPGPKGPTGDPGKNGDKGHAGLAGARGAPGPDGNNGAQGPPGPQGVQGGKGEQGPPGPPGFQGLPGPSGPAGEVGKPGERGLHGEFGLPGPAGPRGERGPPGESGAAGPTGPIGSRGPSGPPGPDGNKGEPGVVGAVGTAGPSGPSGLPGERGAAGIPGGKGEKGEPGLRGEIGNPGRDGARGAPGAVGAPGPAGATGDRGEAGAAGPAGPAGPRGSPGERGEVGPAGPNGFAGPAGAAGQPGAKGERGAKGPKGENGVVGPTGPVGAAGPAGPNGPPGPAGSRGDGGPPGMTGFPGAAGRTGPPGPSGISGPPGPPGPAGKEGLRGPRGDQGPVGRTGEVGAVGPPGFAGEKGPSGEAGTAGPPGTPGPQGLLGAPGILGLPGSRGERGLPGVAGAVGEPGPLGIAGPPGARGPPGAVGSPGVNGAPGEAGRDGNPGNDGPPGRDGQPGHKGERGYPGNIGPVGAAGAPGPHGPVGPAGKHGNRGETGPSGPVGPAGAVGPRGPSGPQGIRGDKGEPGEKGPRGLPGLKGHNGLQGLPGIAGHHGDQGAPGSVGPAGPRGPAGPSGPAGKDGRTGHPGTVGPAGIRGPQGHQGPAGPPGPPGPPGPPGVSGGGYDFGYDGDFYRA
Binder,% bound [1],% bound [2]
{Gd^T″}-GQWHCTTRFPHHYCLYG[dK](Gd^T″) (disulfide 5-14 (inferred); not fully specified (C-terminus)) [Compound ID 808],25%,19%
{Gd^T″}-GQWHCTTYFPHH[dY]CLYG (disulfide 5-14 (inferred); not fully specified (C-terminus)) [Compound ID 914],19%,0%
{Gd^T}-GQWHCTTYFPHHYCLYG (disulfide 5-14 (inferred); not fully specified (C-terminus); reading uncertain) [Compound ID 861],73%,79%
"GQWHCTTYFPHHYCLYG-{AEEA-Gd^G} (disulfide 5-14 (inferred); reading uncertain, no N-terminal chelate printed) [Compound ID 874]",45%,28%
{Gd^T″}-GQ[Bta]HCTTRFPHHYCLYG (disulfide 5-14) [Compound ID 868],36%,40%
{Gd^T″}-GK([Gly-Gd^T″])QWHCTTYFPHHYCLYG (disulfide 6-15 (inferred)) [Compound ID 875],64%,60%
{Gd^T(3)}-GQWH[Pen]TTRFPHHYCLYG (disulfide 5-14; not fully specified (C-terminus)) [Compound ID 896],50%,41%
{Gd^T″}-GQWHCTTDFPH[Dap](Gd^T″)YCLYG (disulfide 5-14) [Compound ID 887],0%,16%
{Gd^T″}-GQWHCTTRFPHH[Bip]CLYG (disulfide 5-14) [Compound ID 873],38%,33%
{Gd^T}-PPQWHCTTRF[Hyp]HHYCLYG (disulfide 6-15; not fully specified (C-terminus); reading uncertain) [Compound ID 856],52%,42%
{Gd^T(3)}-GQWHCTT[Cha]FPHH[dY]CLYG (disulfide 5-14; not fully specified (C-terminus)) [Compound ID 918],19%,0%
{Gd^T″}-GQWHCTTDFPH[2Pal]YCLYG (disulfide 5-14) [Compound ID 888],38%,30%
GQWHCTTYFPHHYCLYG (disulfide 5-14 (inferred); not fully specified (N-terminus)) [Compound ID 919],93%,93%
{Gd^T″}-K(Gd^T″)K(K(Gd^T)Gd^T)GQWHCTTYFPHHYCLYG (disulfide 7-16 (inferred); reading uncertain) [Compound ID 960],30%,34%
{Gd^T″}-GK([Gly-Gd^T″])WHCYTYFPHHYCLYGK(Gd^T″) (disulfide 5-14 (inferred)) [Compound ID 996],76%,67%
{Gd^G}-GQWTCSGDEYTWHCNY (disulfide 5-14 (inferred); not fully specified (C-terminus); reading uncertain) [Compound ID 823],53%,28%
{Gd^D}-GK([Gly-Gd^D])QWHCTTYFPHHYCLYG (disulfide 6-15 (inferred)) [Compound ID 961],54%,55%
{Gd^T″}-GQWHCTTRFPHHYCLYGK(K(Gd^T)Gd^T) (disulfide 5-14 (inferred); reading uncertain) [Compound ID 955],51%,36%
{Gd^T″}-AWHCTTLFPHH[dY]CLYG (disulfide 4-13 (inferred); not fully specified (C-terminus)) [Compound ID 909],14%,0%
{Gd^T″}-GQWHCTTRFPHH[1Nal]CLYG (disulfide 5-14) [Compound ID 867],55%,48%

Binder,% bound [1],% bound [2]
{Gd^T(3)}-GQWHCTTLFPHH[1Nal]CLYG (disulfide 5-14; not fully specified (C-terminus)) [Compound ID 913],78%,64%
{Gd^T(3)}-GQWHCTTRFPHHYC[hPhe]YG (disulfide 5-14) [Compound ID 932],59%,79%
{Gd^T″}-GQ[2Nal]HCTTRFPHHYCLYG (disulfide 5-14) [Compound ID 872],41%,35%
{Gd^T″}-AWHCTTRFPAHYCLYG (disulfide 4-13 (inferred)) [Compound ID 937],11%,14%
Cbz-GQWHCTTRFPHHYCLYGK (disulfide 5-14 (inferred); not fully specified (residue 18)) [Compound ID 925],64%,62%
{Gd^T″}-GQWTCYGDEYTWYCNYE (disulfide 5-14 (inferred); not fully specified (C-terminus)) [Compound ID 826],87%,71%
{Gd^T″}-GQWHCTTDFPHHYCL[Bpa]G (disulfide 5-14) [Compound ID 889],38%,19%
{Gd^T}-DWTCSGDEYTWHCNY[Aib] (disulfide 4-13; not fully specified (C-terminus); reading uncertain) [Compound ID 850],75%,67%
{Gd^T″}-PPWHCTTLFPHH[dY]CLYG (disulfide 5-14 (inferred); not fully specified (C-terminus)) [Compound ID 912],20%,0%
{Gd^T}-DWTC[4Pal]GDEYTWHCNYE (disulfide 4-13; not fully specified (C-terminus); reading uncertain) [Compound ID 849],64%,42%
{Gd^T(3)}-GK([Gly-Gd^T(3)])WHCYTYFPHH[1Nal]CLYG (disulfide 5-14; not fully specified (C-terminus)) [Compound ID 992],75%,64%
{Gd^T″}-GQWHCTTRFPHHYCLYGK(Gd^T″) (disulfide 5-14 (inferred); not fully specified (C-terminus)) [Compound ID 807],48%,45%
{Gd^T(3)}-GQWHCTTDFPHHYCL[2Nal]G (disulfide 5-14) [Compound ID 891],79%,70%
{Gd^T}-PPQWHCTTRFPHHYCLYG (disulfide 6-15 (inferred); not fully specified (C-terminus); reading uncertain) [Compound ID 854],64%,56%
{Gd^T″}-GQWHCTT[Tyr(3-Cl)]FPHH[dY]CLYG (disulfide 5-14 (inferred); not fully specified (C-terminus)) [Compound ID 916],23%,0%
{Gd^T}-GQWHCTTR[1Nal]PHHYCLYG (disulfide 5-14; not fully specified (C-terminus); reading uncertain) [Compound ID 860],60%,45%
{Gd^T(3)}-GQWHCTTD[2Nal]PHHYCLYG (disulfide 5-14; not fully specified (C-terminus)) [Compound ID 894],20%,15%
{Gd^T″}-GQWHCTTD[Bpa]PHHYCLYG (disulfide 5-14) [Compound ID 882],0%,13%
{Gd^T″}-GQWHCTTR[Bip]PHHYCLYG (disulfide 5-14) [Compound ID 881],19%,28%
